Test results taken from ChEMBL document CHEMBL1158843, “Development of a radiochemical cyclooxygenase-1 and -2 in vitro assay for identification of natural products as inhibitors of prostaglandin biosynthesis” (J Nat Prod, 1998).

Assays:
[1] = substrate: CCCCC/C=C\C/C=C\C/C=C\C/C=C\CCCC(=O)O; experiment: Activity of bovine seminal microsomal COX1; settings: Bos taurus
[2] = substrate: CCCCC/C=C\C/C=C\C/C=C\C/C=C\CCCC(=O)O; experiment: Activity of sheep placental cotyledons COX2; settings: Ovis aries

| Protein | Km [1] | Km [2] |
| --- | --- | --- |
| Prostaglandin G/H synthase 1 (Bos taurus), O62664 (protein) MSRQGISLRFPLLLLLLSPSPVLPADPGAPAPVNPCCYYPCQHQGICVRFGLDRYQCDCTRTGYYGPNCTIPEIWTWLRTTLRPSPSFVHFLLTHGRWLWDFVNATFIRDKLMRLVLTVRSNLIPSPPTYNVAHDYISWESFSNVSYYTRILPSVPRDCPTPMGTKGKKQLPDAEFLSRRFLLRRKFIPDPQGTNLMFAFFAQHFTHQFFKTSGKMGPGFTKALGHGVDLGHIYGDNLERQYQLRLFKDGKLKYQMLNGEVYPPSVEEAPVLMHYPRGIPPQSQMAVGQEVFGLLPGLMVYATIWLREHNRVCDLLKAEHPTWGDEQLFQTARLILIGETIKIVIEEYVQQLSGYFLQLKFDPELLFGAQFQYRNRIAMEFNQLYHWHPLMPDSFRVGPQDYSYEQFLFNTSMLVDYGVEALVDAFSRQPAGRIGGGRNIDHHILHVAVDVIKESRELRLQPFNEYRKRFGMKPYTSFQELTGEKEMAAELEELYGDIDALEFYPGLLLEKCHPNSIFGESMIEMGAPFSLKGLLGNPICSPEYWKASTFGGDVGFNLVKTATLKKLVCLNTKTCPYVSFHVPDPHREDRPGVERPPTEL | 8.8 µM |  |
| Prostaglandin G/H synthase 2 (Ovis aries), P79208 (protein) MLARALLLCAAVVCGAANPCCSHPCQNRGVCMSVGFDQYKCDCTRTGFYGENCTTPEFLTRIKLLLKPTPDTVHYILTHFKGVWNIVNKISFLRNMIMRYVLTSRSHLIESPPTYNVHYSYKSWEAFSNLSYYTRALPPVPDDCPTPMGVKGRKELPDSKEVVKKVLLRRKFIPDPQGTNLMFAFFAQHFTHQFFKTDIERGPAFTKGKNHGVDLSHVYGESLERQHNRRLFKDGKMKYQMINGEMYPPTVKDTQVEMIYPPHIPEHLKFAVGQEVFGLVPGLMMYATIWLREHNRVCDVLKQEHPEWGDEQLFQTSRLILIGETIKIVIEDYVQHLSGYHFKLKFDPELLFNQQFQYQNRIAAEFNTLYHWHPLLPDVFQIDGQEYNYQQFIYNNSVLLEHGVTQFVESFTRQIAGRVAGRRNLPAAVEKVSKASLDQSREMKYQSFNEYRKRFLLKPYESFEELTGEKEMAAELEALYGDIDAMELYPALLVEKPAPDAIFGETMVEAGAPFSLKGLMGNPICSPEYWKPSTFGGEVGFKIINTASIQSLICSNVKGCPFTSFSVQDAHLTKTVTINASSSHSGLDDINPTVLLKERSTEL |  | 9.7 µM |
